Results on two substances are retold here after IntAct's records for PubMed 23454188.

The target in this assay is gima7_human GIMAP7 (UniProt Q8NHV1).
Sequence of gima7_human GIMAP7 (Q8NHV1 whole entry): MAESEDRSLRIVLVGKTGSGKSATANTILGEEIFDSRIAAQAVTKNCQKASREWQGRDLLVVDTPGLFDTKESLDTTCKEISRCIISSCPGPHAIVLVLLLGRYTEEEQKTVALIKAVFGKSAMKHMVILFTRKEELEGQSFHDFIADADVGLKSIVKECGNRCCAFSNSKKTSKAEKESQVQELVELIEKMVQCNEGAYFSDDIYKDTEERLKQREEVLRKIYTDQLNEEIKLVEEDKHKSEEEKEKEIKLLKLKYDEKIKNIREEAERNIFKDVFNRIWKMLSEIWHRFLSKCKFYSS

Sequence of GTPase IMAP family member 2 (Homo sapiens), Q9UG22 R117D (Q9UG22 whole entry R117D): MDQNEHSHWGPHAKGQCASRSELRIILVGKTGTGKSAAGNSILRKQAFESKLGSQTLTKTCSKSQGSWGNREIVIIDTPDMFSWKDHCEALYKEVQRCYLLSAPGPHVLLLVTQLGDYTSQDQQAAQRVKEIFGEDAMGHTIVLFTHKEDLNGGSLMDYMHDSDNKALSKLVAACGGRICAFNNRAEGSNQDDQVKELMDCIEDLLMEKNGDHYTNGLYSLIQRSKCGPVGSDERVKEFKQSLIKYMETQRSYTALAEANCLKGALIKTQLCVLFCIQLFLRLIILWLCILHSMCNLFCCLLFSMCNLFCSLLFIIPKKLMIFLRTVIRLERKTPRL
Sequence of GTPase IMAP family member 2 (Homo sapiens), Q9UG22 S54A (Q9UG22 whole entry S54A): as the sequence (Q9UG22 whole entry R117D) above, with S54A, D117R counted along it

On to “GTPase IMAP family member 2 (Homo sapiens), Q9UG22 S54A”, for which the “effect of a mutation on the interaction” value is “disrupting interaction strength”.

With “GTPase IMAP family member 2 (Homo sapiens), Q9UG22 R117D”, the “effect of a mutation on the interaction” value was “disrupting interaction strength”.
